Data reported in patent US6353153B1, “Enhanced transport with a plastid membrane transport protein” (priority 1996, dated 2002).

Experiments:
[1] = tested on: alkaline phosphatase translocation in E. coli JM109 (DE3); test: Induction and transport of alkaline phosphatase under phosphate starvation (immunoblot); format: cell-based, Escherichia coli; conditions: low phosphate (50 μM), cells harvested at the two growth peaks
Source text: The directionality of the distribution of Bce44B in the cytoplasmic membrane and the capability of the bacterium to recognize and integrate Bce44B into the membrane raised the possibility that Bce44B may be functional as a foreign component of the bacterial protein transport apparatus. Functionality of Bce44B was therefore assessed by monitoring two transported bacterial proteins, alkaline phosphatase and , β-lactamase. Alkaline phosphatase is a single copy gene and is transported into the periplasm upon induction by phosphate starvation (50 μM) (Torriani et al. (1960) Biochim. Biophys. Acta. 38:460). The growth characteristics of Bce44B-containing bacteria were compared to those of a strain expressing Oee1-Dhfr, a chimeric chloroplast protein precursor. The expression vector used in the Oee1-Dhfr transformed strain was the same as the one in the Bce44B transformed cells. Growth was monitored in M9 minimal media with growth-permissive phosphate levels or with low phosphate levels (50 μM).
The induction and analysis of alkaline phosphatase was performed as described by Torniani et al. (1960) Biochim. Biophys. Acta. 38:460. […]

Arabidopsis thaliana = test: Seed size of transgenic plants carrying the CaMV-Bce44B-NOS transgene; format: in vivo; conditions: primary generation of transgenic plants
Source text: Transgenic plants (Brassica napus, Arabidopsis thaliana and Lycopersicon esculentum) with altered plastid protein transport capacity were produced by introducing a transgene construct consisting of DNA encoding the Bce44B protein and a 5′ untranslated region immediately upstream of the Bce44B coding sequence. Expression of the construct was obtained by linking the cauliflower mosaic virus 35S promoter (Odell, J. T. et al. (1985) Nature 313:810) upstream. Transcriptional termination was facilitated by the gene encoding nopaline synthase (NOS) found in Agrobacterium Ti plasmids or their derivatives such as pBI101 (Clontech). Construction of the 35S CAMV-Bce44B-NOS transgene construct is diagrammed in FIG. 6.
For the seed transformation protocol (Feldmann, K., (1992) In: Methods in Arabidopsis Research (eds. C. Koncz, N. H. Chua, J. Schell) pp 274-289), 2.4 grams of Arabidopsis thaliana (ecotype Wassilewskija) seeds were surface sterilized for 8 minutes in 5.25% (wlv) sodium hypochlorite containing 0.15% (v/v) Tween 20, then rinsed 6-7 times with sterile water. The seeds were apportioned among 40 125 ml flasks containing 40 ml cocultivation medium (CCM) (1×MS salts, 40 g/l sucrose, 10 mg/l thiamine, […] pyridoxine, […] nicotinic acid and 100 mg/l inositol, pH 6.0 with KOH). […]

B1: Bce44B: plastid transport protein, Brassica napus 44 kDa chloroplast envelope protein, member of Com44/Cim44, encoded by SEQ ID NO:1 (protein)
chain: MQTAMKTMMNQMNTQNSQFNNPGFPTGAGAGAGSPFPFPFPPQTSPTTSPFQPQSQSSGATVDLTATKVDRPPVSKPQPTPIPPTKSIEVYKPSVVVEENKAMKEEKNYAFEDVSPEETTKESPFSNYEEVSETSAPKETRLFDDVLQNGAAPANGATASDVFQSLGAGKGWAGGSVEVLEKMIEYPTFQKMLYPHLPEEMRNPESFKWVRKNPQYRQQLQDMLNNMSESGEWDKRMTETLKNFDPNSPEVKQGFDQLGLTPEEVISKIMENPDVSMAFQNPRVEAALMDCSENPMNIMKYQNDKEVMDVFNKISQLFPGLTG
level of processed alkaline phosphatase relative to Oee1-Dhfr-expressing cells [1]: higher level
seed size relative to wildtype counterparts or pEND4K-only control plants (Arabidopsis thaliana): approximately twice
